Data from patent US20190353661A1.

What was measured:
[1] = biological target: Helminth lysate; assay: ELISA on helminth lysate; (++) 10-100 x background
[2] = biological target: Helminth lysate; assay: direct fluorescent ELISA on helminth lysate
[3] = biological target: T1, Dust mite allergen Der p 2 (dust mite (Dermatophagoides pteronyssinus)) (UniProt P49278); assay: direct ELISA, Der p2 coated at 5 µg/mL, two-fold dilutions of IgE, anti-human IgE secondary, OD 450 nm
T1 sequence (looked up): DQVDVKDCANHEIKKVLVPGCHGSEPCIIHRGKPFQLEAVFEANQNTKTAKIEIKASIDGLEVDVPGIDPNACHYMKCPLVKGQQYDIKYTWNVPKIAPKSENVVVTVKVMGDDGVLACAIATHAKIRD

[4] = biological target: Helminth lysate; assay: ELISA on helminth lysate; (+++) >100 x background

B1: Human IgE mAb 1A5 (antibody, V domains shown)
VH: EVQLVESGGGVVQPGRSLRLSCAGSGFTFSTYVMHWVRQAPGKGLEWVAVISYDGTNKYYADSMKGRFTISRDNSKNTLYLQLNRLRAEDTAVYYCAKTMDDSSGYYCPDYW
VL: SSELTQDPAVSVALGQTVKITCQGDSLRNYFANWYQQKPGQAPVLVIYGQNNRPSGIPDRFSGSTSGNTGSLTITGAQAEDEADYYCNSRDSSGNHLYVFG
In the case of B1, the fold over background [1] is reported as 10 to 100 fold.

B2: Human IgE mAb 11H12 (antibody, V domains shown)
VH: QVQLVESGGDLVTPGGSLRLSCAASGFAFSGYYMSWIRQAPGKGLEWISYINSNGLTISYADSVKGRFTVSRDNAKNSLFLQMSSLRAEDTAIYYCARDWGTTLVTFDLWGQGTLVTVSS
VL: QPVLTQSSSASASMGSSAKLTCTLSSGHRGYNIAWLQQHPGKAPLYLTNLEGSDSYKNDRLTVSSSGADRYLTISNLQPEDEATYYCFTWDSDSRVFGGGTHLTVL
In the case of B2, the fold over background [1] is reported as 10 to 100 fold, the RFU [2] is reported as 1000 RFU and the fold over background (times background) [2] is reported as 10.

B3: Human IgE mAb 2G1 (antibody)
VH: EFQLVESGGGLIQPGGSLRLSCAGSGFTVTTNYMAWVRQAPGKGLEWVSTIYSAGSTFYADSVKGRFTISGDNSKNTLYLQMGSLRAEDTAVYYCARENPAQDAFDIWAKDTMVTVSSASF
VL: EFSYELTQPLSVSVALGQTARITCGGNNIGSKNVHWYQQKPGLAPVLVIYRDSNRPSGIPARFSGSSSGNTATLTISSAQAGDEADYYCHVWDTSTVVFGGGTKLTVLSLPKAAPSVTLFPPSSEELQANKATLVCLISDFYPGAVTVAWKADSSPVKAGVETTTPSKQSNNKYAASSYLSLTPEQWKSHKSYSCQVTHEGSTVEKTVAPTECS
Binder B3 has an EC50 [3] of 7.1 ng/mL.

B4: Human IgE mAb 7G12 (antibody, V domains shown)
VH: QVHLVQSGVDVKKPGASVKLSCKTSGYTFTNYGITWVRQAPGQGLEWMGWISTYDGATNYSQNLQGRIIMTTDTSKRTAYLQMRSLRSDDTAVYYCARGRDSPDHWGQGTLVTVSS
VL: DIQMTQSPSTLSASVGDRVTITCRASQSINRWLAWYQQKPGTAPKLLIFKASTLDSGVPARFSGTGSETEFSLTINSLQPDDFATYYCQQYDHFPHTFGPGTKLDIK
Work on B4 yielded an RFU [2] of 40000 RFU and a fold over background [4] greater than 100 fold.
